# Measurements: a protein production outcome set (Wang et al. 2014)
# Test: label from the status in PepcDB records
# 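Further: failed if final PepcDB status was selected cloned or expressed and not failed if soluble or beyond.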
row,Sequence,protein production
1,MSQYVVCALYKFVELNNYQELREPLLALMEKHHIRGTLLLAGEGINGTVASDRAGIDTLLEWLNTEPRLTGTVYKESYSETQPFNRTKVKLKKEIVTLGVEGIDPRHVVGTYVKPQDWNDLIADPEVFVVDTRNDYEIEIGTFKGAVNPNTETFREFPDYVKENMDPAKHKKVAMFCTGGIRCEKSTAYMKEQGFEEVYHLEGGILKYLEEVPQEESMWEGDCYVFDGRVAVNHQLEKADYDLCNACRLPITDEDKQSELFEQGVSCPKCHGKHSEEQVERFREREKQVSLANQRGEQHVGGESAKQRAQRREAKLAKKAAQRKQA,failed
2,MDRLNQIQIILVETSLSANIGSAARAMKTMGLSNLRLVRPKNPLDEQATALAAGAKNILDNAQIFNTFDAAIADCQLIIGTSARLRHLQSTLVEPRECGKLIINNTNQHKIALIFGRERIGLTNEELLKCHYHLNVPTNPEYESLNLAMAVQLACYEIRMAWLELQKKPIIQPLTEEKNYPTAAAMAHFFDHTERL,not failed
3,MEDPLGRLEWIKFLSAFYDKEDKAENYFNQQVSKVMATENKVSSLKKPKVAFGMVDNGKVYIPAKNSYAAKMVDMAGGDYIFKDLNNKSGYITLEDFYSKSKDADVLIYSSSKEYTPSLKSMLSAAPILKTIKPVKNKKVWCFGKDYYQAIDKTDEIIEDLASIFHPESFKGLEHHHHHH,failed
4,MTITNSKAEAWELIGNQFWTIGRVAARPSDRENDIFLENIVPGSTVAVIGASTRFLIEKALERGASVTVFDFSQRMCDDLAEALADRCVTIDLLDITAEIPKELAGHFDFVLNDRLINRFTTEEARRACLGMLSLVGSGTVRASVKLGFYDIDLKLIEYGEQSGTLAKFFDPSDKTFHFREAGDVLDRALVPHGLIDKPTLLEWYRRRGKETRFDDEDVRAL,failed
5,MQMSMLTRLHYFNCVVETGSISKASRIFDVQPSSISRQLTALEKELGVLLLKRTSRNIGLTEAGQTYYKYSQKIVSDLDEARCAVNDLQQKPKGNLKVSMAVGFAECCILPMIPTFTKLYPEINLELEMTGRVVDLVEENVDVAIRTGRLRDSNLIALKLTSNNFLLCASPQYITEHGTPKSPFNLTDFECIRYEYAGWRDWYLMNDKPTKLTIKSGLTVRSINGQKQLILNHAGLALMPKWSVINELDNGTLVQVLEQNIFSPYESMSSTYAIYLKRELISPKVRVFIDFIKDHIDYNS,failed
6,MSLEQASVTNDFSENKQGCIQHPWQGKKVGYIGDSITDPNCYGDNIKKYWDFLKEWLGITPFVYGISGRQWDDVPRQAEKLKKEHGGEVDAILVFMGTNDYNSSVPIGEWFTEQEEQVLSAHGEMKKMVTRKKRTPVMTQDTYRGRINIGITQLKKLFPDKQIVLLTPLHRSLANFGDKNVQPDESYQNGCGEYIDAYVQAIKEAGNIWGIPVIDFNAVTGMNPMVEEQLIYFYDAGYDRLHPDTKGQERMARTLMYQLLALPVAFEGHHHHHH,not failed
7,MPYLYLLLAIVSEVIGSAFLKSSDGFSKLYPTITTIISYLISFYFLSKTMQHLPLNIAYASWSGLGLVLTTIVSVLIFKEQINLISIISIILIIFGVVLLNTFGSSH,failed
8,MSSRAKRLTHLASLPSMSRALLKKILHFDETLTVIFKQSHVQLSETYGLSTKKARHLYEHLRRVSTDFWSEYYEKKQIVPVTIFDKGYPNLLKEIYDPPFVLFCRGRMNTLYSEKRLAIVGTRKTSTTGLKSLELLIPPLLQDGWVIVSGFAAGVDIHAHQLTVKNGGQTIAVLAHGHDNLYPAAHRPFAEHEMVSQLMISEYPPYVKPRPWQFPERNRIISGLCAGTVVIEAKEKSGSLITADQALEQGRDVFAVPGAITNQKAAGTNQLIQQGAKLIQRADDIIEELCGFQQSCDSDKFF,failed
9,MTYCLGIVTQAGLIMAADSRTNAGIDYISTYQKLFDFSLPGDRTIVICCSGNLSITQAVLSQLRRDLAGHFDINLHSLPTMYDLARYLGQKVRQLQESDRDWLKQDGIDFYCNFLLGGQIRGGPIELYLVYGQGNCIHATPETPYLQIGETKYGKPILDRTISFDTSLDMAAKCALMSLDSTMRSNLSVGPPLNLARYERDSLVAPMLVQFPAGHEYLVEMRRRWEISLKDAFMRLPDIDWSRQLMRSLSPVSESVPLEHHHHHH,failed
10,MSTKTGNYISIAIFAFFGGIARAWLNSSFGFYGTFWGNIIGCFLLAFFTYLFMEFKDVRQWLTVGLGTGFVGAFTTFSTFNLDVLKNIQANVPITALIYFLSSIIFGFCFAYLGMNAGKQVGNLLRKED,failed
11,RSRPSPYACHVEAWAADGRQRVRMANPGHATLVLHVYDCLRLAQGPRRYTIEPGRQWEDSWPDAGADLACDLWILGPDGFHRHIRR,failed
12,QEIRPMPADSAYGVVHISVCNMRDEGKFTSGMSTQALLGMPVKVLQYTGWYEIQTPDDYTGWVHRMVITPMSKEKYDEWNRAEKIVVTSHYGFTYEKPDDDSQTVSDVVAGNRLKWEGSKGHFYKVSYPDGRQAYISRHISQPESKWRASLKQDAESIIKTAYTMIGIPYLWAGTSSKGVDCSGLVRTVLFMHDIIIPRDASQQAYVGERIEIAPDFSNVQRGDLVFFGRKATADRKEGISHVGIYLGNKRFIHALGDVHISSFDPEDECYDEFNTGRLLFATRFLPYINKEKGMNTTDHNLYYLHH,not failed
13,MTAASFAQILLLLGTTALVVAVFQWLRVPSSLAYLVVGVLLGPHTGGPVIENPEIHGAAEFGIVFLMFTIGLNLSLPQVHALRHLVLGLGTGQVVLTTLVVGAAAFAFGLSPEAAFVVGAVFAQSSTAIIGKQLAEQGEEYSRHGRLAVAMSVFQDVTAVPLIVVVPVLAVPSLRVLGESLAWALAKAVLAFVLVFFAGRWLLRPLFHAVASRRSAELFTLTVLLVSLGAGGLTYQLGLSVAFGAFLVGMMLGETEFRHQVESTIRPFRDVLLGLFFVSIGMLFDPSLMEGTWQWALGGAFVLLAAKTVLVAVLVRATGIDLATAWRVGLLVAVGGEFGFALLAIALDAGVISQLTGQIVLMAVLLSMITAPFLIRYNRVLVEGWFRPPPGEEGALSAGPGVAGSPHDHVIICGYGRIGQNIGRFLEEERIPYVALDLDPQRVKEARIACEPVYYGDSSERDMLEAVGIGKARLVVVSHEDLAAAHKVLHHAAALRPGLPVMVRTRDESHVEELRRAGAAEVVPETLEAGLMIASQALLLLNVPLSRVARRIREQRLNRYLLLREFFRGDETFSDDVQSQDGDRLRAVPLPPGCRVAGCTLAELALENVVVTALVRHGVRELAPAPETRLAEGDAVVLFGAVSDLDKAERRLLG,failed
14,MVKMKKVEQLSSHLYLIDDFDLQHNERTGTYVLLGDDITLIETCAAPSLPYILDGLQQLHIDLNEVKNIIVTHVHLDHAGAAGLMMEKCPNATLYVHSRGARHMIDPTKLILGAKAVYKEDFDKLFDPILPIEEERVHIVQHGDTLQIAEDRILTFYDTPGHAKHHISIHDSLTNGIFTGDTIGIYYRELADLGVELYLPSTSPSQFQPDAMIASKNHIQSMNVDTIYFGHYGASSNVTEVYKQLEHWLPIFVHTGKEVFEKYNDFDEATKALQTILMDKISSHLIKLNVPSDHSVYNILHLDIEISAMGIIDYFTKLEKTNPPIS,failed
15,MESTKSYDIPILRNVSRSFSVHYRDYLQRCGIFVPKEGNSSGPDAYVVFHNGQTRYVVGFSFKFYHKSEFSKRNIEEEAKKFFKGVVSVLNDESFSSVQLRFQFVMVVCTSYGRSVVFSSEEQNIVEDASYLVTEHSSGSTLNESSRSCLQLVIVSQRNLEMYLGRDNVETLRKIGEASREEFSKDFSVWCETVFESMSNEYVSPLEQSNVTLRVARNIRPRTNEENRMQIEELQTAMKVERSVAASSSLSSSFDWNTFLREYCGLSEEDVAYCLPKVEDIDMDELPAVTKEILRDLGIDKPALRLKIRSSIRSYLANER,not failed
16,MIQEIASILVQPGREADFEAGVAQARPLFMRARGCHGVALHRSIEAPQRYTLVVDWETVDNHMVDFRQSADFQEWRKLVGECFAEPPQVHHEQKVL,not failed
17,MNASAVETIYESTEDKAALTSVVDLVKLSDQYRQSAILHYAVADKLFDLTQTGRTPAEVAASFGMVEGKAAILLHALAALGLLTKEGDAFRNTALTERYLTTTSADYIGPIVEHQYLQWDNWPRLGEILRSEKPLAFQQESRFAHDTRARDAFNDAMVRLSQPMVDVVSELGVFARARTVIDLAGGHGTYLAQVLRRHPQLTGQIWDLPTTRDAARKTIHAHDLGGRVEFFEKNLLDARNFEGGAADVVMLNDCLHYFDAREAREVIGHAAGLVKPGGALLILTMTMNDDRVTPALSADFSLHMMVNTNHGELHPTPWIAGVVRDAGLAVGERSIGRYTLLIGQRSSGEV,not failed
18,MLLVMGAHESGLDRARLQSLYEQLVATNEDETEKLAASGHSTGLVASEWARFLAPFDFGYRLVALQRESKRVAAALTRALYGIDTSGASEHDPLWAVEHRVLPVPVTDRLLFCEMRFLLVLALSRRLWMRLERVDPLGQENPFPRDAEIIERVEDLARQSRERLALLAERSPEALNAGKQEAHDCIEDLRTKETRAAEQVAGFAQALGDAALLEKVWHALVDEIAQNRQLNHALLQTLCQWVLMLIGADTEVPSSASCSDE,not failed
19,YNPWRNPQNALERRNIVLRLMLEHKMIGDELYQLLSQRPLGVQKKGQISRKYPAFIQTLQADLRRKLGEHKISSLLGA,failed
20,MKVYFDDIYVSTARQFELVDITDQVEQIVEKSGIKNGICLIFVAHSTAAIVANEHERGLMEDILTKIKEFTEPSRSWKHNLIDDNAHAHLGATFLGAERVFPVREGKLVRGTWQNIFLVELDGPRSERHITVEILGE,not failed
21,MSNDQSAMNELHWLIDMVQTIEVGLVVLDRDYNIQLWNGFMENHSGVSPNSIKGQNLFSRFPDLPATWLKQKMESVFMLKNRAFISWEQRPYVFQFKNYRPITGRADFMYQNVTLLPLASLTGKITHISVIVYDVTDIAVNKLQLKAANEQLERLSQTDGLTQLHNRRHWQQCLEHEYDLYARYSGIASLVMIDIDHFKNINDTYGHLAGDKVIQHIAHILSHSLRETDCAGRYGGEEFAVVMPSTCGADALNFTERLREKIASSTVVYEGLKIKVTVSLGVCELGKHISSSSSWISCSDKALYEAKQKGRNCTVLHCAPTSAE,failed
22,ISDRKMAEIALRESEARFRNLFESNIVGMFFASNQGEIFDANDRFLQMIGFTKEELDLGLVHWDRLTPPEYDQKDQEIIARLRNHETPEPWQKEYYRKDGSRIPVLVGVASIDVELEYTVCIVVDMT,failed
23,MSAIDSQLPSSSGQDRPTDEVDRILSPGKLIILGLQHVLVMYAGAVAVPLMIGDRLGLSKEAIAMLISSDLFCCGIVTLLQCIGIGRFMGIRLPVIMSVTFAAVTPMIAIGMNPDIGLLGIFGATIAAGFITTLLAPLIGRLMPLFPPLVTGVVITSIGLSIIQVGIDWAAGGKGNPQYGNPVYLGISFAVLIFILLITRYAKGFMSNVAVLLGIVFGFLLSWMMNEVNLSGLHDASWFAIVTPMSFGMPIFDPVSILTMTAVLIIVFIESMGMFLALGEIVGRKLSSHDIIRGLRVDGVGTMIGGTFNSFPHTSFSQNVGLVSVTRVHSRWVCISSGIILILFGMVPKMAVLVASIPQFVLGGAGLVMFGMVLATGIRILSRCNYTTNRYNLYIVAISLGVGMTPTLSHDFFSKLPAVLQPLLHSGIMLATLSAVVLNVFFNGYQHHADLVKESVSDKDLKVRTVRMWLLMRKLKKNEHGE,failed
24,MLGNKVVSSPLVAALVALAVRLLAHNFSHHIHLPYHFGITTSKTGSEIWKEAVFWKQQFGVVPAFLTTVGPWFMEYIPPASSDAYVIFLCLCDALTVYIVSRWPSAKPQLTYALFVLNPIMALLPMLESLAPLEHVLLAVILECCRKRRIHPWLIFAARLLAPLLGFHFIAIIVALWYPVGTPCPKIALVGVALCTACIGGCGMLYLRWWGEHVERTSLYSPPDNGVMWYVRLLIMAAFHRSMEVGQIELPAVLTLIFSTGVPCEKEAAAETMKDGGAIPGDRRLLVTLLAICFSKLFCEHVILADYMITVFFLYSLLEVKGRGGFKSMLDRVRGLNIFLPICTLLLGVPLQYAFYTGWVMWDMANPNWVFFPQVAFVTGGGLFLLAFVNSLVDAMKEECVAGITKEKQA,failed
